According to patent publication US20210230272A1:
Each block holds one substance with its values, some of them ahead of it.

What was measured:
human PD-L1 (human) [1] = target: human PD-L1 (human) (UniProt Q9NZQ7); experiment: ELISA, PD-L1 coated; control of LB319
human PD-L1 (human) [2] = target: human PD-L1 (human) (UniProt Q9NZQ7); experiment: ELISA, PD-L1 coated; control of LB320
[3] = target: IL10 antibody (Sino biological, Cat #SEKA10947); experiment: ELISA, same conditions as the antigen-coated ELISA
human CLDN18.2 (human) [4] = target: human CLDN18.2 (human) (UniProt P56856); experiment: flow cytometry, CF633 labeled antibody 1 µg/ml, hCLDN18.2+ cells
human CLDN18.2 (human) [5] = target: human CLDN18.2 (human) (UniProt P56856); experiment: flow cytometry, CF488 labeled antibody 1 µg/ml, hCLDN18.2+ cells
human CLDN18.2 (human) [6] = target: human CLDN18.2 (human) (UniProt P56856); experiment: flow cytometry, CF633 labeled antibody 10 µg/ml, hCLDN18.2+ cells
human CLDN18.2 (human) [7] = target: human CLDN18.2 (human) (UniProt P56856); experiment: flow cytometry, CF488 labeled antibody 10 µg/ml, hCLDN18.2+ cells
mice CLDN18.2 (mice) = mice CLDN18.2 (mice) (UniProt P56857); experiment: cell ELISA, mCLDN18.2+ cells

human PD-L1 (human), sequence (Q9NZQ7 19-238): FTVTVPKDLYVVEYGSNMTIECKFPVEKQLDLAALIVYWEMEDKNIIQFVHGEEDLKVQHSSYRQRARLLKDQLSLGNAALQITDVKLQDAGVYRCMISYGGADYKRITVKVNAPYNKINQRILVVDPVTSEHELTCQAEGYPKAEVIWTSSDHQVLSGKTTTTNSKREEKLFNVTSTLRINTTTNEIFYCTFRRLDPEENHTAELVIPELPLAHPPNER

EC50 (human PD-L1 (human) [1]): 0.072 nM
EC50 (human PD-L1 (human) [2]): 0.072 nM
Substance: LB318 (Durvalumab) (antibody)

EC50 [3]: 4.53 nM
Substance: IL10 (Peprotech, Cat #: 200-10) (from UniProt P22301 19-178) (ligand)

Binding value (FACS fluorescence intensity) (human CLDN18.2 (human) [4]): 23
Binding value (FACS fluorescence intensity) (human CLDN18.2 (human) [5]): 1750
Binding value (FACS fluorescence intensity) (human CLDN18.2 (human) [6]): 23.2
Binding value (FACS fluorescence intensity) (human CLDN18.2 (human) [7]): 3480
Emax (mice CLDN18.2 (mice)): 0.19
Substance: Neg IgG (antibody)
